Residue numbers refer to the chain shown, from its start.
T1: FGF-8 (Homo sapiens, UniProt P55075)
T1 construct: purchased R & D
T1 sequence (P55075 23-215 isoform P55075-3 limits assumed): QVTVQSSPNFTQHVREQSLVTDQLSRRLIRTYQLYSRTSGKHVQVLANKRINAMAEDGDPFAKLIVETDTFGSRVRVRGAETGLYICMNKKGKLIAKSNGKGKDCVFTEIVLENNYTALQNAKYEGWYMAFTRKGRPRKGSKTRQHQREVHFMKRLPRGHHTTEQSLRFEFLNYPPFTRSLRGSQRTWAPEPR

T2: compound 1 as a partial peptide of FGF-8 (Homo sapiens, UniProt P55075)
T2 construct: 17; made in house; host or cells: chemical synthesis
T2 sequence (P55075 with tags, fused parts or gaps isoform P55075-3 limits assumed): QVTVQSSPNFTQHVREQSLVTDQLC

B1: KM3334: anti-FGF-8 neutralizing human chimeric antibody, VH SEQ ID NO. 5, VL SEQ ID NO. 6, human γ1/κ, YB2/0 cell-derived (antibody, listed as Mus musculus, V domains shown)
VH: QVQLQQSGAEVARPGASVKLSCKASGYTFTDYYLNWVKQRSGQGLEWIGEIDPGSDSIYYNENLEGRATLTADKSSSTAYMQLNSLTSEDSAVYFCARYGYSRYDVRFVYWGQGTLVTVST
VL: DVLMTQTPLSLPVSLGDQASISCRSSQSLVHSNGRTYLEWYLQKPGQSPKVLIYKVSNRISGVPDRFSGSGSGTDFTLKISRVEAEDLGVYFCFQGSHVPYTFGGGTKLEIK
B2: HV0LV6: YB2/0 cell-derived anti-FGF-8 neutralizing CDR-grafted antibody, VH HV.0 (SEQ ID NO. 18), VL LV.6 (SEQ ID NO. 21) (antibody, V domains shown)
VH: QVQLVQSGAEVKKPGASVKVSCKASGYTFTDYYLNWVRQAPGQGLEWMGEIDPGSDSIYYNENLEGRVTITADTSTSTAYMELSSLRSEDTAVYYCARYGYSRYDVRFVYWGQGTLVTVSS
VL: B1 VL with L3V, T7S, D17E, Q18P, L88V, G105Q, L109V
modifications: HV.0, a designed amino acid sequence of VH of an anti-FGF-8 CDR-grafted neutralizing antibody; LV.6, a designed amino acid sequence of VL of an anti-FGF-8 CDR-grafted neutralizing antibody
B3: HV0LV2-1/CHO: CHO/DG44 cell-derived anti-FGF-8 neutralizing CDR-grafted antibody, VH HV.0, VL LV.2-1 (SEQ ID NO. 46) (antibody, V domains shown)
VH: B2 VH
VL: DIVMTQSPLSLPVTPGEPASISCRSSQSLVHSNGRTYLEWYLQKPGQSPQVLIYKVSNRISGVPDRFSGSGSGTDFTLKISRVEAEDVGVYFCFQGSHVPYTFGQGTKVEIK
B4: HV0LV4-3/CHO: CHO/DG44 cell-derived anti-FGF-8 neutralizing CDR-grafted antibody, VH HV.0, VL LV.4-3 (SEQ ID NO. 50) (antibody, V domains shown)
VH: B2 VH
VL: B3 VL with T14S, P15L
B5: HV0LV4-1/CHO: CHO/DG44 cell-derived anti-FGF-8 neutralizing CDR-grafted antibody, VH HV.0, VL LV.4-1 (SEQ ID NO. 42) (antibody, V domains shown)
VH: B2 VH
VL: B3 VL with I2V, Q50K
B6: HV0LV3-3/CHO: CHO/DG44 cell-derived anti-FGF-8 neutralizing CDR-grafted antibody, VH HV.0, VL LV.3-3 (SEQ ID NO. 51) (antibody, V domains shown)
VH: B2 VH
VL: B3 VL with T14S, P15L, F92Y
B7: HV0LV3-1/CHO: CHO/DG44 cell-derived anti-FGF-8 neutralizing CDR-grafted antibody, VH HV.0, VL LV.3-1 (SEQ ID NO. 44) (antibody, V domains shown)
VH: B2 VH
VL: B3 VL with I2V
B8: HV0LV0/CHO: CHO/DG44 cell-derived anti-FGF-8 neutralizing CDR-grafted antibody, VH HV.0, VL LV.0 (antibody, V domains shown)
VH: B2 VH
VL: B3 VL with V51L, F92Y
B9: HV0LV4-2/CHO: CHO/DG44 cell-derived anti-FGF-8 neutralizing CDR-grafted antibody, VH HV.0, VL LV.4-2 (SEQ ID NO. 43) (antibody, V domains shown)
VH: B2 VH
VL: B3 VL with I2V, T14S, P15L, V51L

molecular target: T1, FGF-8; experiment: FGF-8 binding activity by BIAcore 2000, immobilized FGF-8; settings: antibody 50 μg/mL; FGF-8 immobilized 4498 RU
Protocol: In order to examine the FGF-8 binding activity of the various anti-FGF-8 neutralizing CDR-grafted antibodies obtained in 4. of Reference Example 2 in more detail, the FGF-8 binding activity of the various anti-FGF-8 neutralizing CDR-grafted antibodies was measured and compared in the following manner using BIAcore2000 (manufactured by BIACORE). The YB2/0 cell-derived anti-FGF-8 neutralizing chimeric antibody KM3334 obtained in 3.(2) of Reference Example 1 was used as a positive control.
HBS-EP (manufactured by BIACORE) was used hereinafter as a sample diluent and a buffer during measurement. First, Sensor Chip CM5 (manufactured by BIACORE) was installed, and FGF-8 (manufactured by R & D) dissolved in 31.25 μg/mL of 10 mmol/L acetate buffer solution (pH 4.0) was immobilized on the surface of the sensor chip by the amine coupling method. The immobilization amount measured by using a resonance signal (RU) as an index was 4498 RU.
60 μL of each of the antibody solutions was added to an FGF-8 immobilized flow cell at a flow rate of 20 μL/min, and the dissociation reaction was then monitored for 3 minutes. After the dissociation reaction, 20 μL of a 10 mmol/L glycine-hydrochloride solution (pH 1.5) was added to the flow cell twice continuously to regenerate the surface of the chip. This cycle was performed with the antibody solution at various concentrations (from 50 to 0.068 μg/mL) to obtain sensor grams at various concentrations. The sensor grams of the respective antibodies were converted to sensor grams of specific reactions by deducing a sensor gram obtained using chimeric antibody KM871 (Shitara K. et al., Cancer Immunol. Immunother., 36, 373-380, 1993) to GD3 as a negative control. […] Accordingly, the binding activity of the various antibodies was compared in terms of the binding [resonance signal (RU)] in the binding reaction. […] The effect of restoring the binding activity was not observed in the 6 amino acid residues of FR of VH.

| binding reaction [resonance signal (RU)] | Molecule |
| --- | --- |
| the highest binding reaction | B1 |
| the same high binding reaction as KM3334 | B2 |

molecular target: T1, FGF-8; experiment: FGF-8 neutralizing activity: FGF-8-dependent growth of mouse breast cancer cell line SC-3; format: cell-based; settings: SC-3 cells, FGF-8 50 ng/mL, WST-1
Protocol: The FGF-8 neutralizing activity of the purified anti-FGF-8 neutralizing chimeric antibody was evaluated by measured the following FGF-8-dependent growth inhibitory effect of mouse breast cancer cell line SC-3 (Tanaka A. et al., Proc. Natl. Acad. Sci. USA, 89, 8928-8932, 1992) described below. That is, SC-3 cells were suspended at a concentration of 3.0×10^4 cells/mL in DMEM:Ham's F12 (1:1) medium [a mixed medium of DMEM medium and Ham's F12 medium (manufactured by Invitrogen) at a ratio of 1:1] containing activated charcoal-treated FBS at a concentration of 2%. The suspension was inoculated on a 96-well plate in an amount of 150 μL (4.5×10^3 cells)/well. After the culturing in a 5% CO2 incubator at 37° C. for 18 hours, the medium was replaced with 100 μL/well of a test medium. The test medium was produced by dissolving 50 ng/mL of FGF-8 (manufactured by R & D) and the anti-FGF-8 neutralizing chimeric antibody at each dilute concentration in DMEM:Ham's F12 (1:1) medium containing 0.1% BSA. The chimeric antibody KM2760 to human chemokine CCR4 described in WO 01/64754 was used as an antibody of a negative control. After the culturing in a 5% CO2 incubator at 37° C. for 48 hours, the medium was replaced with a freshly prepared test medium, and the culturing was further performed for 48 hours. WST-1 Reagent (manufactured by Roche) was added in an amount of 10 μL/well, and the mixture was culturing in a 5% CO2 incubator at 37° C. for 1 hour while being gently stirred. Then, absorbance (OD450,650) was measured. In FIG. 21, the abscissa represents a concentration of an antibody added, and the ordinate represents relative growth (%) to growth when adding 50 ng/mL of FGF-8 alone. The relative growth (%) to growth when adding 50 ng/mL of FGF-8 alone was calculated by the following formula. Relative growth (%) to growth when adding FGF-8={(Absorbance when adding FGF-8 and antibody−Absorbance when not adding FGF-8 and antibody)/(Absorbance when adding FGF-8 alone−Absorbance when not adding FGF-8 and antibody)}×100

| Molecule | FGF-8 neutralizing activity (SC-3 cell growth inhibitory activity) |
| --- | --- |
| B3 | the lowest neutralizing activity |
| B4 | approximately half that of the chimeric antibody KM3034 |
| B5 | slightly lower FGF-8 neutralizing activity than the HV0LV3-1/CHO |
| B6 | approximately half that of the chimeric antibody KM3034 |
| B7 | the next high FGF-8 neutralizing activity |

molecular target: T2, compound 1 as a partial peptide of FGF-8; experiment: FGF-8 binding activity by BIAcore 2000, immobilized biotin-labeled compound 1; settings: antibody 16.7 μg/mL; FGF-8 peptide immobilized 35 RU
Protocol: In order to examine the FGF-8 binding activity of the anti-FGF-8 neutralizing CDR-grafted antibodies obtained in 5. of Reference Example 3, the FGF-8 binding activity of the various anti-FGF-8 neutralizing CDR-grafted antibodies was measured and compared through BIAcore 2000 using compound 1 as a partial peptide of FGF-8 with the C terminal labeled with biotin in the following manner. The anti-FGF-8 neutralizing chimeric antibody KM3034 derived from CHO/DG44 cells obtained in 3. (1) of Reference Example 1 was used as a positive control.
HBS-EP was used as a sample diluent and a buffer during measurement. First, Sensor Chip SA (manufactured by BIACORE) was installed, and 5 μL of compound 1 labeled with biotin which had been adjusted to 0.05 μg/mL was added at a flow rate of 5 μL/min. Then, 5 μL of a 10 mmol/L glycine-hydrochloride solution (pH 1.5) was added twice continuously to wash the tip surface. The immobilization amount of the FGF-8 peptide was 35 RU.
60 μL of each of the antibody solutions was added to an FGF-8 peptide immobilized flow cell at a flow rate of 20 μL/min, and the dissociation reaction was then monitored for 3 minutes. After the dissociation reaction, 20 μL of 10 mmol/L glycine-hydrochloride solution (pH 1.5) was added twice continuously to regenerate the chip surface. This cycle was performed on the antibody solution at various concentrations (from 50 to 1.85 μg/mL) to obtain sensor grams at various concentrations. The sensor grams of the respective antibodies were converted to sensor grams of specific reactions by deduceing a sensor gram obtained using the chimeric antibody KM871 to GD3 as a negative control.

| binding reaction [resonance signal (RU)] | Molecule |
| --- | --- |
| the higher binding reaction | B3 |
| the lowest binding reaction | B8 |
| the higher binding reaction | B5 |
| lower than that of the HV0LV3-1 | B6 |
| the higher binding reaction | B7 |
| the lower binding reaction | B9 |

| Molecule | binding reaction [resonance signal (RU)] |
| --- | --- |
| B4 | the higher binding reaction than that of the HV0LV3-1/CHO and similar to that of the HV0LV6/CHO |

— US7708999B2, “Remedies for arthritis” (Kyowa Hakko Kirin Co., Ltd., priority 2001, dated 2010)
